assay: soluble fraction after stress (log2 fold change); higher = more stays soluble; pooled small domains, quantitative proteomics; conditions: stress: pH 4
Outline: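 Following acid stress at pH 4, the amount of each small protein domain still soluble was measured in pooled custom libraries by high-throughput quantitative proteomics. Its fold change, on a log2 scale, is higher when more of the domain stayed soluble. This fold change is taken as a measure of aggregation propensity.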

“HMTSPRRLYALIVEHVGKDGVMHRSDVENVLAKVESEMDVDDLLDQLEINGTIIRRQDGTWQLL” and “HMTSRFITTEEGTLYVDADGRKVSGWQTIDGSRYYFDEHGIRQSGTIEVNGETYVLDEDGVL” are within 0.2 log units of each other in “soluble fraction (log2)” value: -1.66 for the first, -1.51 for the second.

First: HMTSRWEIGYNVAKKYYDEHGNLDVERAVYDNFELKKWLNTQRYKNSAGTLAEKYKIKLDELGMNWER
Second: HMTSSQLYLIEEDMEGERLDAFLAEVIADLSRTAIKDLISNGRVLVDGQARKPSYRVKEGEQVLIHVPEAR
The “soluble fraction (log2)” value of the first is higher: -0.00494 for the first, -1.31 for the second.

Compared with “HMTSVFQNSDGTWGHLTKTVNPLIYTIEYGRRTGFSSREEAEESYQRSLTSYQDQLSKLKKERD”, “HMTSVPGTVVTNANLRGGPGTNYPIVGKAPAGTTVNVVESTADRTWYYLDTGSWIAAFLVKLS” is lower in “soluble fraction (log2)” value: 0.223 for the first, -0.229 for the second.

First: HMTSVRVPVKKEIWFWAIKESQRDLNEILARFPKMDKWINQEENPTFNQLEKVAKFLRVPFGYMFLDKPPK
Second: HMTTETGTVKWFNEGKGFGFIAPDGGGKDLFAHFKEIQGSGFKTLTENQRVQFEVTQGQKGPQASNIRTL
The “soluble fraction (log2)” value of the first is higher: 0.332 for the first, -0.183 for the second.

Compared with “HMTTHEQVAILRRELNGLVGAWHHRTGQAHGVTHSKLRKELGGPPAAVASAAQLSARIEKIRQWAT”, “HMTTIAQMTGPQRAAVILLVLGEDHGRTIWQEFDDDEIRIITRAMAELGTVDADEVERLMLDFVGKLSS” is lower in “soluble fraction (log2)” value: -0.0306 for the first, -1.75 for the second.

Going from “HMTTIAQNISNYRTRANMTQQQVADKLSVSHHTVSKWELGINTPSVEDMQKLAQVFGVTITELVVD” to “HMTTIHVDPEKISKIIGPGGKTIKKIVEETGAKIDIEEDGRVYIAAVNSEEAAKAIDMINGI”, the “soluble fraction (log2)” value rises from -0.662 to -0.274.

First: HMTTIPAGRQQYILSLIRREGTVTVSRLAQELEVSELTIRRDLDQMAARNLVERTHGGATERR
Second: HMTTKEEAAYQAIRSAIIDGELKPGQSVTIRDLASRFDLGRTPITDAMKHLALDGWLETTTGVGTRV
The “soluble fraction (log2)” value of the first is higher: no less than 0.43 for the first, -0.15 for the second.

“HMTTLAADFNSDGRVDIGDLSILAGNWGKSRTNEVDFNKYGDADYNGRIDIIDLSILATQFGQTDNSN” and “HMTTLDTVARQLRDRIREQLDPTGEMSDESLLRTIEEAVYRYSSSGHVLTANEKETVIRRIFHSFR” are within 0.2 log units of each other in “soluble fraction (log2)” value: -0.142 for the first, -0.201 for the second.

“HMTTMNSADLIKELEKAGWTLRGVKGSHHIYTHPARGGHLSVPHPKKDLGAGLARQLRKQAGL” and “HMTTPAAISKIKKLEEAKRLLATTTYSMKEIAVKLKYKSHTHFGMDFKNNTGMTPAEYRKAIKAKREKQMN” are within 0.2 log units of each other in “soluble fraction (log2)” value: 0.346 for the first, 0.173 for the second.

Going from “HMTTQERVSYSAFINDVETGRVAKVVISGYTIEGTRTNNSSFVTERPYGVDSNLSEVLMQNSVSIEGKA” to “HMTTQVNTVKIQLANGYEMTVLTSKTNVKEILEDNNIILENNEKVTPNIDEEISSNKTIKITDKSN”, the “soluble fraction (log2)” value rises from -0.523 to -0.0659.

First: HMTTTSGLIKTIQTGRRKLGMDDETYRALLADVSGGKTSSKDLNAYQLKEVLRRMREAGFRS
Second: HMTVDAVALGRRVRHLRKQAGLTLDQLAERTGVSGSHLSLVENARREPRLSLVQRIAEVLGVPVEDL
The “soluble fraction (log2)” value of the first is higher: 0.371 for the first, -0.602 for the second.

“HMTVGEKIQYYRKKIGLSQEELGQKMLLSRQTISLWEMDKTLPTVDNLLRLKEIFSVSIDELLSENEPK” and “HMTVKNFNDLPGFKNENLAELKAMGITTISELAEALNDGGKIKEIIKNLSGVGPKTAEKWKDAIG” are within 0.2 log units of each other in “soluble fraction (log2)” value: -0.257 for the first, -0.173 for the second.

“HMTVKVPDLRGKTLAEMQRILDDAGLKYEINDSTFSRTAIPGTVREVIPAPGSEVKLGRILFIAINGF” and “HMTVLIDEQSSDGLLKITVTANTAVKSITIADELLEDKEQLEDYLILVLNKAIARANQVNQTELDAVAK” are within 0.2 log units of each other in “soluble fraction (log2)” value: 0.00881 for the first, 0.163 for the second.

Compared with “HMTVPAGIVLSSIRQDGDVLHIRGTAQSTERLNFFRNSFSASWGSPAQNGKRKADPVTGLVDFTISLK”, “HMTVPMKILILEDEQRNAMRLIRLLNDIDTTFIIEGPLTNIKEAVDFFQSGKTTDLILADIRL” is higher in “soluble fraction (log2)” value: -1.16 for the first, -0.489 for the second.

Compared with “HMTVSADQTTADAVIKLIDAIGTVSKNSGSAISAARSGYDALTDAQKKLVTNYNKLTQAEQVFSSLS”, “HMTVSLTDVPFVPEILDRLERPELDVLLAILNGATNTFDLAAKTGRSRDELDEVLDRLTTLGLIER” is lower in “soluble fraction (log2)” value: -0.165 for the first, -1.12 for the second.

First: HMTVTLTTLRNGSTGAQVKTLQRLLSAMDYYNGETDGKFGISTAAAVKAFQRAKRLTVDGIVGKNTWTALL
Second: HMTVTMADISQAYNEKRYLTTISLSNTYLTFAKPTTELLSIRYRTYFIIGKYAESLTEIAKL
The “soluble fraction (log2)” value of the first is lower: -0.0337 for the first, 0.22 for the second.

Going from “HMTVTTDITQYFLQENGLLNGPNARQLRQKIGETLNIGYTNGKQLLKRAQQFGLTRDQILTALKK” to “HMTVVIKVQASQLESWKSSAGTEIKAKLIAVEDEKTYLFVTETGKTIRATAAQLDESSVSRARKLAGL”, the “soluble fraction (log2)” value falls from 0.278 to -0.514.

First: HMTYGYFELKAKNLDSLKQFLKGIAQVESIEEENNGLKVFLKNELESEELSEKLAEAKIFVSHLAKKK
Second: HMTYKPAADFKPSDTSSLKEGMKVEHPKFGFGTVMKMEEVGTERKARINFADFGEKTLLLSFAKLKIHEN
The “soluble fraction (log2)” value of the first is lower: -0.617 for the first, -0.361 for the second.

First: HMTYNEYPEKEMQDLIDKSISQQEQAASQYGYSLGDYVTARYGFQSESDFREYVQGLAEDYMKEKI
Second: HMTYQHQSIIHRRTRGAILTAAKELLAESGISGTNMIEIADRAQVSRASLYNHFRDKHEVFLALVES
The “soluble fraction (log2)” value of the first is lower: -1.33 for the first, -0.407 for the second.

Compared with “HMTYSAWIEKAYSELEKKGITEAELSDALDKRGINLEDLKLMGPDEAVKYQSEVEGVVLELSKSKE”, “HMTYSEEEIERDLYVRGTLYQIGDLVENKIDGTSGEIVRRGPNYVQYSDGENFYKAFLHSIQEV” is lower in “soluble fraction (log2)” value: -0.319 for the first, -1.45 for the second.

First: HMTYTMVAYGSQGDAVRQLQSELNRHGYQLDEDGVFGKKTRAAVRDYQKKNSLRLDGIAGDETWGSLLA
Second: HMTYTPRAGSLASQVIGFFRHNPDEELLLDDITDKFDATRGNIHTLLAEAVRFKLLARYRNDDGDYVYKPG
The “soluble fraction (log2)” value of the first is higher: -0.522 for the first, -1.6 for the second.

“HMVAADTVQVPDVTGKTVADAKQALISAGLQVGTVTAKDGKETANTILETSPAAGTSVDKGSKVNLVYSTG” and “HMVAAITDLPVKSVNGRQMYYYVVRKGETVYSLTHTLGITHDRLVKANRSVEDGLRAGQILYFPVSEFG” are within 0.2 log units of each other in “soluble fraction (log2)” value: -0.0646 for the first, -0.00401 for the second.

Going from “HMVAELAEMAENKNITSAQLALAWILKQSENIIPIPGTKRIKYLNENIEAVNVDLSKEDVENIENLLRKYP” to “HMVAGHLQEKNGQFYAVLSYKDTKGKRRTKWVPTGLMVRGNKKRAEAMLNDIRRKFVPPEQED”, the “soluble fraction (log2)” value rises from -0.65 to 0.249.

First: HMVAGPDEPLSDREQGVLDLLAEGLSNKAISKQLGISVATVKSHLSNIYGKLQAENRMQAVARARELGLM
Second: HMVAISNTSGLAGVAYWIQSNIPKGIDIRKDNPGIVTIKNWIDEEYRKGRTTTISEEEMFKLVREYMPEL
The “soluble fraction (log2)” value of the first is higher: -0.386 for the first, -1.12 for the second.

“HMVAMGQRVVPLTHLSIDDVRRLLESTYGKDSGIEVTKPGTAAKGVIVTAPRTELDGIVALVKQA” and “HMVAMYLRVGISNGRRYLSIVQGYRDQVTKKVRHNTVKSLGYLDDLEKHYPDPIAHFKAVVEEMNKKQALE” are within 0.2 log units of each other in “soluble fraction (log2)” value: 0.0822 for the first, 0.191 for the second.

Compared with “HMVANDQILNQYGISDREAEIIGLLIEGLSNQQIAKQLYISPNTVKTHIKNIYAKVGVNNRLQLFSLLK”, “HMVANLPFNYKVYAKKGKLYVVISYKDSNGKYKKKWIRTGLDEGTKKKEVNTVADQIAAEYYSSMRLE” is higher in “soluble fraction (log2)” value: -0.549 for the first, 0.0398 for the second.

First: HMVAQQINDFRSERDASTGTLKRPLFDTLRDVISSRAQAYVSATGKPVTVEDLDRIYQAVEAEAKQAL
Second: HMVDDELTARRRVNLRRIADELGGAAAVARKTQKSVQQISSMLNGTKSFGSKIARDIEPKLGLPLQSLDKE
The “soluble fraction (log2)” value of the first is lower: -0.349 for the first, 0.203 for the second.

“HMVDDRPVTGTTLIREWQGRAYEVIVQAGHFEFQGQRYQSLSAIAKVITGTVWNGWAFFGLR” and “HMVDDTGLPTVLISDGRLLERNLHRLHLDHTWLQRRLEENNIPSIQSLFLLTVDKQHQLYFLKK” are within 0.2 log units of each other in “soluble fraction (log2)” value: -0.444 for the first, -0.277 for the second.

First: HMVDGTPALTDLKKVSKPGRRHYTGSQEIPRVLNGLGISIVSTSKGIMTGAQARRQKVGGELLAFV
Second: HMVDIIMDLLEAVAQARPADAFIKSLHIQYQERGGLSKKQLQGLYGKAAKTAGIPPGKLATLEAIILKRP
The “soluble fraction (log2)” value of the first is higher: 0.22 for the first, -0.0377 for the second.

First: HMVDITPDLIRTLLERFGEYGVTKEHIEARIQRHIESILPAQVVQLRKTYNSLKDGMSQPSDWFDI
Second: HMVDLEINGRQTLQFVANKYGIPVEKLATDLNIPSDRFGEKLGRLRRQYAFTMNDVRKSILKNK
The “soluble fraction (log2)” value of the first is lower: -1.43 for the first, 0.215 for the second.

First: HMVDPELFIWVESSKEPVYHLAYKIELFVHSTDPQDDVPVHRWQVFVDAHNGNILDKFDEVR
Second: HMVDPRWETPDENLAEQIKSVMPVMWVYDREAKSFVERPAIDFSFSIFERTTLYIYDKDGNEIGFAR
The “soluble fraction (log2)” value of the first is lower: -1.65 for the first, 0.0599 for the second.

Going from “HMVDQVDKDRFLEALTQLGGSAGNVRLRETLQWEEEVYVIIKDALVKSGTILTGRGRGGSVLLASA” to “HMVDSLTIGRRIRQLRTERGMTLEELAAAVGRAPSQLSMIENGRREPKLTLLQAIARALGSTLDALLE”, the “soluble fraction (log2)” value rises from -0.909 to -0.404.

First: HMVDVNLLKYYVMESGKSLTDVAAAIGVTPATLHRKMSGESDFYRKEMQDIASYLGLDRDTIDRIFF
Second: HMVEDIVLTDAQIEFVKQQAKNGLSAFQISEMIWPEMSVKRFSKQHVAVLDFLREYEPAYVHDSE
The “soluble fraction (log2)” value of the first is higher: -0.892 for the first, -1.85 for the second.

Compared with “HMVEELDVQFIKLTVQGDHPWKNKKIRELSIPWDLLFVLIIRGDKSIIPNGKTTIKDGDIVVVSAPEYRG”, “HMVEFLMESTNGMYGIVKEGSSYYVQKGINESSLDYIGGMFMKDKNRFSSYSTALKRLELISGQET” is higher in “soluble fraction (log2)” value: -1.5 for the first, -0.497 for the second.

In the case of “HMVEGMQFDRGYQSPYFVTNAEKMVAELDNPYILLVEKKISSMKELLPVLEPVAQQGKSLLIISEEVEG”, the “soluble fraction (log2)” value is reported as -0.602.
